The supplement of paper PMC9112550, “Optimization of the antimicrobial peptide Bac7 by deep mutational scanning” (BMC Biology, 2022)

System: Escherichia coli TOP10
Assay: shrunken log2 fold change of peptide-encoding DNA abundance (4.5 h post-induction vs induction); higher = less antimicrobial activity (less host growth inhibition)
Conditions: time post-induction: 4.5 h; library: site-saturation at positions 5, 18, 19, 20
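Further: peptides expressed intracellularly from a pBAD plasmid library in pooled LB shake-flask culture, induced with 0.3% L-arabinose, DNA abundance read by NGS, three biological replicates, DESeq2 with apeglm shrinkage.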

In order of falling “shrunken log2 fold change” value:
1. RRIRMRPPRLPRPRPRPEANPRP  3.83
2. RRIRYRPPRLPRPRPRPHMGPRP  3.73
3. RRIRHRPPRLPRPRPRPRSKPRP  3.34
4. RRIRKRPPRLPRPRPRPMRMPRP  1.84
5. RRIRMRPPRLPRPRPRPGRAPRP  1.27
6. RRIRGRPPRLPRPRPRPTCCPRP  1.2
7. RRIRDRPPRLPRPRPRPVSWPRP  1.13
8. RRIRMRPPRLPRPRPRPARPPRP  1.09
9. RRIRRRPPRLPRPRPRPGVEPRP  0.99
10. RRIRGRPPRLPRPRPRPDPVPRP  0.951
11. RRIRMRPPRLPRPRPRPPMGPRP  0.921
12. RRIRGRPPRLPRPRPRPKSEPRP  0.9
13. RRIRVRPPRLPRPRPRPPAPPRP  0.794
14. RRIRGRPPRLPRPRPRPPWGPRP  0.651
15. RRIRARPPRLPRPRPRPPWAPRP  0.576
16. RRIRFRPPRLPRPRPRPDQPPRP  0.57
17. RRIRWRPPRLPRPRPRPRCEPRP  0.545
18. RRIRWRPPRLPRPRPRPAYAPRP  0.531
19. RRIRDRPPRLPRPRPRPFFFPRP  0.483
20. RRIRGRPPRLPRPRPRPGTDPRP  0.472
21. RRIRKRPPRLPRPRPRPGGPPRP  0.453
22. RRIRTRPPRLPRPRPRPPPIPRP  0.451
23. RRIRSRPPRLPRPRPRPVQEPRP  0.403
24. RRIRGRPPRLPRPRPRPYGEPRP  0.398
25. RRIRKRPPRLPRPRPRPHPKPRP  0.386
26. RRIRVRPPRLPRPRPRPTDPPRP  0.328
27. RRIRWRPPRLPRPRPRPRFPPRP  0.304
28. RRIRFRPPRLPRPRPRPRMGPRP  0.302
29. RRIRNRPPRLPRPRPRPTLGPRP  0.3
30. RRIRYRPPRLPRPRPRPRSQPRP  0.298
31. RRIRHRPPRLPRPRPRPAAHPRP  0.274
32. RRIRARPPRLPRPRPRPQMAPRP  0.274
33. RRIRIRPPRLPRPRPRPQWPPRP  0.238
34. RRIRLRPPRLPRPRPRPQNAPRP  0.223
35. RRIRGRPPRLPRPRPRPHSEPRP  0.194
36. RRIRGRPPRLPRPRPRPRFYPRP  0.189
37. RRIRGRPPRLPRPRPRPIVNPRP  0.187
38. RRIRCRPPRLPRPRPRPDPQPRP  0.17
39. RRIRVRPPRLPRPRPRPFCWPRP  0.163
40. RRIRRRPPRLPRPRPRPTLIPRP  0.157
41. RRIRPRPPRLPRPRPRPVGQPRP  0.102
42. RRIRCRPPRLPRPRPRPRIWPRP  0.0951
43. RRIRHRPPRLPRPRPRPLILPRP  0.0886
44. RRIRIRPPRLPRPRPRPAMQPRP  0.0843
45. RRIRPRPPRLPRPRPRPFCCPRP  0.0801
46. RRIRQRPPRLPRPRPRPAFPPRP  0.0799
47. RRIRCRPPRLPRPRPRPQADPRP  0.0688
48. RRIRSRPPRLPRPRPRPKVKPRP  0.0666
49. RRIRIRPPRLPRPRPRPGLKPRP  0.0429
50. RRIRVRPPRLPRPRPRPIFRPRP  0.0423
51. RRIRVRPPRLPRPRPRPQDPPRP  0.0381
52. RRIRTRPPRLPRPRPRPEETPRP  0.0325
53. RRIRCRPPRLPRPRPRPAQFPRP  0.0313
54. RRIRLRPPRLPRPRPRPAHTPRP  0.0258
55. RRIRHRPPRLPRPRPRPDKTPRP  0.0185
56. RRIRMRPPRLPRPRPRPDEMPRP  0.0155
57. RRIRERPPRLPRPRPRPEFAPRP  0.0144
58. RRIRPRPPRLPRPRPRPFPSPRP  0.0138
59. RRIRMRPPRLPRPRPRPRQAPRP  0.013
60. RRIRYRPPRLPRPRPRPECTPRP  0.0109
61. RRIRMRPPRLPRPRPRPCRPPRP  0.00908
62. RRIRPRPPRLPRPRPRPWWAPRP  0.00677
63. RRIRTRPPRLPRPRPRPEISPRP  0.00497
64. RRIRWRPPRLPRPRPRPIKAPRP  0.00489
65. RRIRDRPPRLPRPRPRPKVRPRP  0.00434
66. RRIRQRPPRLPRPRPRPMQWPRP  0.0039
67. RRIRMRPPRLPRPRPRPIVYPRP  0.00317
68. RRIRHRPPRLPRPRPRPEHGPRP  -0.00141
69. RRIRWRPPRLPRPRPRPGNYPRP  -0.00177
70. RRIRQRPPRLPRPRPRPESLPRP  -0.00178
71. RRIRPRPPRLPRPRPRPCQKPRP  -0.00783
72. RRIRLRPPRLPRPRPRPMDCPRP  -0.0117
73. RRIRIRPPRLPRPRPRPRTWPRP  -0.0123
74. RRIRHRPPRLPRPRPRPHHEPRP  -0.0148
75. RRIRDRPPRLPRPRPRPCNRPRP  -0.0148
76. RRIRWRPPRLPRPRPRPDIGPRP  -0.0157
77. RRIRWRPPRLPRPRPRPIHLPRP  -0.0188
78. RRIRWRPPRLPRPRPRPIMVPRP  -0.0215
79. RRIRERPPRLPRPRPRPLWCPRP  -0.0233
80. RRIRYRPPRLPRPRPRPEDAPRP  -0.0333
81. RRIRDRPPRLPRPRPRPRGIPRP  -0.0372
82. RRIRTRPPRLPRPRPRPCHGPRP  -0.0399
83. RRIRLRPPRLPRPRPRPKFRPRP  -0.0412
84. RRIRWRPPRLPRPRPRPQCEPRP  -0.0451
85. RRIRYRPPRLPRPRPRPVMEPRP  -0.0459
86. RRIRTRPPRLPRPRPRPTFYPRP  -0.0485
87. RRIRTRPPRLPRPRPRPYEGPRP  -0.0536
88. RRIRTRPPRLPRPRPRPPKLPRP  -0.0543
89. RRIRERPPRLPRPRPRPQFCPRP  -0.0627
90. RRIRIRPPRLPRPRPRPVRTPRP  -0.0633
91. RRIRQRPPRLPRPRPRPQMAPRP  -0.065
92. RRIRNRPPRLPRPRPRPYDAPRP  -0.066
93. RRIRTRPPRLPRPRPRPHSEPRP  -0.0681
94. RRIRNRPPRLPRPRPRPCCWPRP  -0.0688
95. RRIRPRPPRLPRPRPRPLVYPRP  -0.0742
96. RRIRLRPPRLPRPRPRPRNYPRP  -0.0808
97. RRIRCRPPRLPRPRPRPHYIPRP  -0.0818
98. RRIRGRPPRLPRPRPRPGNQPRP  -0.0828
99. RRIRKRPPRLPRPRPRPDISPRP  -0.0841
100. RRIRERPPRLPRPRPRPHRKPRP  -0.0945
101. RRIRLRPPRLPRPRPRPSNIPRP  -0.103
102. RRIRPRPPRLPRPRPRPMDQPRP  -0.113
103. RRIRIRPPRLPRPRPRPIFFPRP  -0.123
104. RRIRLRPPRLPRPRPRPKVLPRP  -0.128
105. RRIRTRPPRLPRPRPRPTWTPRP  -0.136
106. RRIRNRPPRLPRPRPRPDKPPRP  -0.14
107. RRIRTRPPRLPRPRPRPVDCPRP  -0.142
108. RRIRWRPPRLPRPRPRPQCMPRP  -0.157
109. RRIRVRPPRLPRPRPRPHKKPRP  -0.169
110. RRIRPRPPRLPRPRPRPGTIPRP  -0.171
111. RRIRPRPPRLPRPRPRPHMWPRP  -0.175
112. RRIRCRPPRLPRPRPRPWKQPRP  -0.181
113. RRIRYRPPRLPRPRPRPWSGPRP  -0.184
114. RRIRFRPPRLPRPRPRPLCDPRP  -0.196
115. RRIRQRPPRLPRPRPRPYNSPRP  -0.198
116. RRIRERPPRLPRPRPRPTIDPRP  -0.227
117. RRIRHRPPRLPRPRPRPFCQPRP  -0.243
118. RRIRYRPPRLPRPRPRPPTHPRP  -0.251
119. RRIRQRPPRLPRPRPRPFQFPRP  -0.252
120. RRIRHRPPRLPRPRPRPIIAPRP  -0.272
121. RRIRERPPRLPRPRPRPPFNPRP  -0.275
122. RRIRCRPPRLPRPRPRPSVAPRP  -0.276
123. RRIRFRPPRLPRPRPRPNFLPRP  -0.277
124. RRIRHRPPRLPRPRPRPDCMPRP  -0.291
125. RRIRVRPPRLPRPRPRPMSQPRP  -0.296
126. RRIRYRPPRLPRPRPRPKIFPRP  -0.297
127. RRIRDRPPRLPRPRPRPAPYPRP  -0.352
128. RRIRCRPPRLPRPRPRPIHWPRP  -0.363
129. RRIRYRPPRLPRPRPRPFLNPRP  -0.369
130. RRIRSRPPRLPRPRPRPQSMPRP  -0.384
131. RRIRSRPPRLPRPRPRPYHGPRP  -0.397
132. RRIRRRPPRLPRPRPRPHWYPRP  -0.404
133. RRIRVRPPRLPRPRPRPHTHPRP  -0.414
134. RRIRSRPPRLPRPRPRPMLHPRP  -0.424
135. RRIRIRPPRLPRPRPRPHSDPRP  -0.439
136. RRIRCRPPRLPRPRPRPSNKPRP  -0.44
137. RRIRLRPPRLPRPRPRPYMIPRP  -0.449
138. RRIRLRPPRLPRPRPRPSLCPRP  -0.462
139. RRIRHRPPRLPRPRPRPYMQPRP  -0.476
140. RRIRPRPPRLPRPRPRPNQYPRP  -0.509
141. RRIRHRPPRLPRPRPRPVKDPRP  -0.549
142. RRIRPRPPRLPRPRPRPSYKPRP  -0.564
143. RRIRCRPPRLPRPRPRPLLYPRP  -0.572
144. RRIRYRPPRLPRPRPRPHNEPRP  -0.675
145. RRIRERPPRLPRPRPRPSFPPRP  -0.704
146. RRIRERPPRLPRPRPRPSNTPRP  -0.942
147. RRIRERPPRLPRPRPRPYGPPRP  -1.02
148. RRIRQRPPRLPRPRPRPNTYPRP  -1.07
149. RRIRTRPPRLPRPRPRPVYTPRP  -1.09
150. RRIRYRPPRLPRPRPRPHMNPRP  -1.2
